# Source: paper PMC9266912, “CITF1 Functions Downstream of SPL7 to Specifically Regulate Cu Uptake in Arabidopsis”
# Changes are numbered by the printed parent chain.
# T1: His-SPL7 (SBP domain) (Arabidopsis, UniProt Q8S9G8 122-228)
# T1 sequence: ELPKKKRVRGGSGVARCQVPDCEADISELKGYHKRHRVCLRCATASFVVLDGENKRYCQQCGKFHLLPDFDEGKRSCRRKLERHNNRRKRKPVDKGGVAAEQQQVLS
# B1: ProCITF1-G (dsDNA)
# DNA 1: CCATTTGTACTGCATAAAGACCCCCCACGTACATACAT
# DNA 2: ATGTATGTACGTGGGGGGTCTTTATGCAGTACAAATGG
# B2: mProCITF1-G (dsDNA)
# DNA 1: B1 DNA 1 with T8G, A9C, T30G, A31C
# DNA 2: B1 DNA 2 with T8G, A9C, T30G, A31C
# B3: ProFRO4-G (dsDNA)
# DNA 1: ACCCGTACAACGTATTCGTTACGAACCAATTTCTA
# DNA 2: TAGAAATTGGTTCGTAACGAATACGTTGTACGGGT
# B4: ProFRO5-G (dsDNA)
# DNA 1: CTATCATGTACGTTTTTAAGAGTTTCGTACAAATTCACGT
# DNA 2: ACGTGAATTTGTACGAAACTCTTAAAAACGTACATGATAG
# B5: ProCOPT2-G (dsDNA)
# DNA 1: GATGATGTACTTGTACTACAGTACAACACATAC
# DNA 2: GTATGTGTTGTACTGTAGTACAAGTACATCATC
# Tests used:
# His-SPL7 (SBP domain) [1] = target: T1, His-SPL7 (SBP domain); assay: EMSA; Chemiluminescent EMSA Kit (Beyotime), manufacturer's protocol; buffer, salt, pH and temperature not stated; settings: protein: recombinant; tags: 6xHis (pET-28a); label: 5' biotin (probe); blunt
# His-SPL7 (SBP domain) [2] = target: T1, His-SPL7 (SBP domain); assay: competition; cold mutant against biotin-N1; Chemiluminescent EMSA Kit (Beyotime), manufacturer's protocol; buffer, salt, pH and temperature not stated; settings: protein: recombinant; tags: 6xHis (pET-28a); blunt
binder,measurement,setting,value
B1,binding result,His-SPL7 (SBP domain) [1],binds
B2,binding result,His-SPL7 (SBP domain) [2],no binding
B3,binding result,His-SPL7 (SBP domain) [1],binds
B4,binding result,His-SPL7 (SBP domain) [1],binds
B5,binding result,His-SPL7 (SBP domain) [1],binds
